The test system of test [1] is α2δ-1-NMDAR interaction. Put plainly: Luminescence resonance energy transfer (LRET) in HEK293 cells. The format is binding, rat. An excerpt:
Luminescence resonance energy transfer (LRET) measurements: For constructs used for LRET measurements, the extracellular non-disulfide-bonded cysteines were mutated to serines so that they were not labeled with the maleimide reactive fluorophore. For the GluN1 subunit, Cys22 and Cys459 were mutated; for the GluN2A subunit, Cys231, Cys399 and Cys461 were mutated. For measurement of LRET between GluN1 and α2δ-1, Cys22 was not mutated and was used as the site for attachment of the thiol-reactive fluorophore. Additionally, for quantitative analysis of the background, a thrombin recognition sequence (amino acids LVPRGS) was inserted immediately at the C-terminal to the cysteine (Kim and Chung, 1992). […]
Cysteines at the GluN1 and GluN2A sites labeled with thiol-reactive terbium chelate served as donor fluorophore sites, and YFP fused to α2δ-1 served as the acceptor fluorophore. […] The sample was excited at 337 nm, and emission was detected at 527 nm in a QuantaMaster QM3-SS system with Fluorescan software (Photon Technology International, Edison, N.J.). […] Data were analyzed with Origin 8.6 software (OriginLab Corp., Northampton, Mass.). Each sample was scanned 3 times for each ligated condition, and each scan was recorded as an average of 99 sweeps. […] The distance between the donor and acceptor was calculated using the Förster equation (Kim and Chung, 1992).

Test [2] concerns the target T1, NMDARs of spinal dorsal horn neurons (Rattus norvegicus, UniProt P35439+Q00959+Q00960).
T1 construct: from tissue; host or cells: rat lumbar spinal cord slices (lamina II neurons) and synaptosomes made from them
Put plainly: Electrophysiological recordings in rat spinal cord slices (SNL, Cacna2d1 vector). Conditions: SNL rats; peptides 1 mM for 60 min. The format is cell-based. On the procedure:
Electrophysiological recordings in spinal cord slices: Anesthesia was induced in rats or mice with isoflurane and removed the lumbar spinal cords via laminectomy. […] The spinal cord slices were placed in a glass bottom chamber and continuously perfused with Krebs solution at 5.0 ml/min at 34° C. maintained by an inline solution heater and a temperature controller.
It becomes impossible to visualize neurons in other laminas in adult (>10-week-old) rodent spinal cords because of heavy laminar myelination. […] The tip of the puff pipette was placed 150 μm away from the recorded neuron.
In some experiments, the attached dorsal root was electrically stimulated with a stimulating electrode (0.5 ms, 0.6 mA and 0.1 Hz) to evoke monosynaptic excitatory postsynaptic currents (EPSCs). The α-amino-3-hydroxy-5-methyl-4-isoxazolepropionic acid receptor (AMPAR)-mediated EPSCs were recorded at a holding potential of −60 mV in the presence of 10 μM bicuculline and 1 μM strychnine, whereas NMDAR-mediated EPSCs were recorded at +40 mV in the presence of 10 μM 6-cyano-7-nitroquinoxaline-2,3-dione, 10 μM bicuculline, and 1 μM strychnine. […] All signals were recorded using an amplifier (MultiClamp700B; Axon Instruments Inc., Union City, Calif.), filtered at 1-2 kHz, digitized at 10 kHz, and stored for off-line analysis. Final spinal cord slice recordings were performed 3-4 weeks after the nerve injury or sham surgery. In all electrophysiological experiments, 3-5 animals were used for each recording protocol, and only 1 neuron was recorded in each spinal cord slice.

In test [3] the target is T2, α2δ-1-GluN1 protein complex (Mus musculus, UniProt O08532+P35438).
T2 construct: from tissue; host or cells: mouse brain slices (hippocampal CA1, hypothalamic PVN, brain tissue membrane extracts)
T2 sequence (O08532 25-956 limits assumed, other chains not shown): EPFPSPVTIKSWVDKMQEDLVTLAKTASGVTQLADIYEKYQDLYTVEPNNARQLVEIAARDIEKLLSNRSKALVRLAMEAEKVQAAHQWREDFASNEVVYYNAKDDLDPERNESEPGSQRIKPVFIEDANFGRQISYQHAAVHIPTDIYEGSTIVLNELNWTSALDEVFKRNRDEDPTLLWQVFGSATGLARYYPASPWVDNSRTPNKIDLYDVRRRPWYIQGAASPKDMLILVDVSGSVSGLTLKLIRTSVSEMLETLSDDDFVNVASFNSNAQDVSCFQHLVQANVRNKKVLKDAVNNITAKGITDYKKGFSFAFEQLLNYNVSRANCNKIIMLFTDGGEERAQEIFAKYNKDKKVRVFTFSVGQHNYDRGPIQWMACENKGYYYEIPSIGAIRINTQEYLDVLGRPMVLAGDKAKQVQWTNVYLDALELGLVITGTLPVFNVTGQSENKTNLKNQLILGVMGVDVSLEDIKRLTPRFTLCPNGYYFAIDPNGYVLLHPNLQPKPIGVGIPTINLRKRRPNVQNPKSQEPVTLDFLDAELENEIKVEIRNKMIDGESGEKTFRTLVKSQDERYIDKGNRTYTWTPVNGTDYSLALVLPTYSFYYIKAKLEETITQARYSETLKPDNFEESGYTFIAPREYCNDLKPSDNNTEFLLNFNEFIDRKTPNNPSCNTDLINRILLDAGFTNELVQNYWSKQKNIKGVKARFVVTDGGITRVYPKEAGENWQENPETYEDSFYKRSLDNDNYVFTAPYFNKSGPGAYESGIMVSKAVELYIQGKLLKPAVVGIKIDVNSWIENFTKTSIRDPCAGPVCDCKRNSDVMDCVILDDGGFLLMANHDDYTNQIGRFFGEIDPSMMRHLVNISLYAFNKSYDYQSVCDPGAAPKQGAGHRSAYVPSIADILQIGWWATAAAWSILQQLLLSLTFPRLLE
The experiment in a line: Co-IP of α2δ-1 and GluN1 in mouse brain slices. The format is cell-based. How it is done:
FIGS. 22A-22D: α2δ-1-bound NMDARs contribute to brain injury and neurological deficit caused by MCAO in the brain. (A) Upper: Original gel images of coimmunoprecipitation (co-IP) analysis show the interaction between α2δ-1 and GluN1 in two samples from mouse brain tissues; Lower: Effect of α2δ-1Tat peptide (1 μM for 60 min) on the α2δ-1-GluN1 protein complex in mouse brain tissues (n=6 mice per group). (B) Representative gel images and quantification of co-IP analysis show the effect of OGD on the α2δ-1-GluN1 or α2δ-1-Cav2.2 association in mouse brain tissues (n=6 mice per group). IgG and input were used as negative and positive controls, respectively. (C) Original gel images and quantification of co-IP analysis show the effect of α2δ-1Tat peptide (P) and control peptide (C; both 1 μM for 30 min) on the α2δ-1-GluN1 or α2δ-1-Cav2.2 association in mouse brain slices subjected to OGD (O, n=6 mice per group). (D) Neurological severity scores (left) and representative TTC staining and quantification (right) of brain infarct volume in MCAO mice treated with α2δ-1Tat peptide or control peptide (both 200 μg/kg, i.p.) at 15 min before MCAO and immediately before reperfusion (n=8 mice per group). Data are shown as means±SEM. *p<0.05, **p<0.01 compared with the control peptide- or vehicle-treated group (paired Student's t-test for panels B-D and F; Mann-Whitney test for panel E). […]

Entries after “also recorded” stand apart in the source; their conditions may differ.

T1 sequence (Q00959 20-1464 limits assumed, other chains not shown): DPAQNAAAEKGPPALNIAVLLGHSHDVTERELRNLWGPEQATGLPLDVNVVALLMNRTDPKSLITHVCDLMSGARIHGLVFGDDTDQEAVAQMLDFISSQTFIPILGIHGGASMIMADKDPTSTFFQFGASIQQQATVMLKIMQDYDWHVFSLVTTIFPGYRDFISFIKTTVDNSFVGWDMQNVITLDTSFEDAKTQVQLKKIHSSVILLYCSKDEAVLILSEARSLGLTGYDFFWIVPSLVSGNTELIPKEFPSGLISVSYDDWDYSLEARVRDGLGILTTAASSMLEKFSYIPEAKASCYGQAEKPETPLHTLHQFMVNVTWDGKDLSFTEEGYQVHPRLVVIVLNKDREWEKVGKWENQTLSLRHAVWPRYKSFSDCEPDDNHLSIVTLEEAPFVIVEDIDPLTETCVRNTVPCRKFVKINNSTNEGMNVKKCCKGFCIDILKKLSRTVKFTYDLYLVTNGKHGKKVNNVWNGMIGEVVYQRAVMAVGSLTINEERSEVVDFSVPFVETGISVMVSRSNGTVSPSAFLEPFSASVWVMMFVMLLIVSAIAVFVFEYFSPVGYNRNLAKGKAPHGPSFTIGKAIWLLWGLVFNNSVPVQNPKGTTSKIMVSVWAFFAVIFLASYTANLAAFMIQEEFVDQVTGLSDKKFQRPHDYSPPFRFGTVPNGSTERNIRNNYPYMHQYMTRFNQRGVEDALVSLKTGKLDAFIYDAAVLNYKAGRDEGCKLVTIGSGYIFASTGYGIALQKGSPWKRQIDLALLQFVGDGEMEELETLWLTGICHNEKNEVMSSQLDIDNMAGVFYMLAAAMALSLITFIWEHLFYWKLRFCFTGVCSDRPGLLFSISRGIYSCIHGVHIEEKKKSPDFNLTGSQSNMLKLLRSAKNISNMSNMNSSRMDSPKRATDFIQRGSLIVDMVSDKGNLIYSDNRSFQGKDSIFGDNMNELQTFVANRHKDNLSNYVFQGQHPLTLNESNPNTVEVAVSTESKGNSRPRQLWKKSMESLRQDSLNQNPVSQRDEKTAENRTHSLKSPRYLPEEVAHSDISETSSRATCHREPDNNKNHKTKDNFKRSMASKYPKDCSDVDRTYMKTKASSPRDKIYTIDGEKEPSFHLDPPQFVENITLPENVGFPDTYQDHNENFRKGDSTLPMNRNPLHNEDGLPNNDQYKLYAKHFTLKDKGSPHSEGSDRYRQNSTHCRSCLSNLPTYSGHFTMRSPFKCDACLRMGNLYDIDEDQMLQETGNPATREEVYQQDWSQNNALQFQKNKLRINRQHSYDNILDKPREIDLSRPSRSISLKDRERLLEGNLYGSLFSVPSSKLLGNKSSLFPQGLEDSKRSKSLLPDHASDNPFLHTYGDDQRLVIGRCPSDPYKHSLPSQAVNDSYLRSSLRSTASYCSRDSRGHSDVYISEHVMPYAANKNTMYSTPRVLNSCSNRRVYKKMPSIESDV
T1 sequence (Q00960 27-1482, other chains not shown): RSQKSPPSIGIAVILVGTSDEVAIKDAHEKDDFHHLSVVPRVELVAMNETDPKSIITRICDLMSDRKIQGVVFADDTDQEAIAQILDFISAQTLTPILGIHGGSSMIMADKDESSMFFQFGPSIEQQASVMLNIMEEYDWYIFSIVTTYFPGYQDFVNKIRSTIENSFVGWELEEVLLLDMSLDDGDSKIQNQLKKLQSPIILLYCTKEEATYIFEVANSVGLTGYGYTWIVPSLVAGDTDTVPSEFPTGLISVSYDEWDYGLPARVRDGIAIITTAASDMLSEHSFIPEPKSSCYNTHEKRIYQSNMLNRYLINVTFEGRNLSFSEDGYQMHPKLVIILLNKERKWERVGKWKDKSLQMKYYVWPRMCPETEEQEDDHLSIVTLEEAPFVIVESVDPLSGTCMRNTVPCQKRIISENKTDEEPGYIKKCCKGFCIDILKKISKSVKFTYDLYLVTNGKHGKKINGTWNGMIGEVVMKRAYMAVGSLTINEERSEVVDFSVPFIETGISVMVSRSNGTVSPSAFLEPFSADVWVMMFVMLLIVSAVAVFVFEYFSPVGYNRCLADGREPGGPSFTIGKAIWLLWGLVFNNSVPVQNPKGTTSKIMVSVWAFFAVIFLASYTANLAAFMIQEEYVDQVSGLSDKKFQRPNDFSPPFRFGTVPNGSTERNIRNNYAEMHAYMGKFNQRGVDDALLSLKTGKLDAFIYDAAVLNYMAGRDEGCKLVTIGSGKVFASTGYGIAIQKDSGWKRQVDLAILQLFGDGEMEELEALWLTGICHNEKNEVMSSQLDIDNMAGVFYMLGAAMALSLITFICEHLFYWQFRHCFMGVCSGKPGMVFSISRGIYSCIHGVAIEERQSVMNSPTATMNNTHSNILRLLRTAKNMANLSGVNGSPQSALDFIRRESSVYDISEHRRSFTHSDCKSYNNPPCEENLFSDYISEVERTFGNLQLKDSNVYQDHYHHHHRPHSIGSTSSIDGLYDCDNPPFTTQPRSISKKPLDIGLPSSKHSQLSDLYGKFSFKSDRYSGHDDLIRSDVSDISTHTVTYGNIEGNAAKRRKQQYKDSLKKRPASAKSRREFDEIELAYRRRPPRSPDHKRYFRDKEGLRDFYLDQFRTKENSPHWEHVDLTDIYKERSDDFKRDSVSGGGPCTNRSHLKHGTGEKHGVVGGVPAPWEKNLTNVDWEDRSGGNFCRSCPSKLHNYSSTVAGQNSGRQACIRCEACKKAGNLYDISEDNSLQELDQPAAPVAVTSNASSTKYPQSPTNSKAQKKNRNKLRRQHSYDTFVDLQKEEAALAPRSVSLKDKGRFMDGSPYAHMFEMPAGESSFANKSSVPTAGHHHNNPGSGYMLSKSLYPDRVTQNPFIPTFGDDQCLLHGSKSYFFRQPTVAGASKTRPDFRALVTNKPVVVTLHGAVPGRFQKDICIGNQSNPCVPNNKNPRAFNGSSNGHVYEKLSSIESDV

`NCC1(CC(=O)O)CCCCC1` [gabapentin]: the “LRET signal with the R217A mutant of α2δ-1” value in test [1] (YFP-α2δ-1 R217A mutant) was “failed to alter; also recorded: had no effect”. For the same molecule, the “LRET signal between terbium-labeled NMDAR subunit and YFP-α2δ-1” value in test [1] (wild-type α2δ-1, terbium-labeled GluN2A or GluN1) was “completely abrogated; also recorded: loss of the LRET signal; also recorded: diminished the interaction”.

As to “YGRKKRRQRRRVSGLNPSLWSIFGLQFILLWLVSGSRHYLW (a2d1 peptide) [α2δ-1Tat peptide, 30-amino-acid peptide mimicking the C-terminal domain of α2δ-1 fused to the cell-penetrating peptide Tat]”, the “increased pre- and postsynaptic NMDAR activity of spinal dorsal horn neurons” value in test [2] is reported as “normalized”. For the same molecule, the “α2δ-1-GluN1 interaction in brain tissues subjected to OGD” value in test [3] (OGD, 1 μM for 30 min) is “substantially reduced”. Further, the “α2δ-1-GluN1 protein complex in brain tissues” value in test [3] (brain slices, 1 μM for 60 min) is given as “large reduction”.

The values above are taken from patent publication US11787839B2, “Targeting α2δ-1-bound glutamate receptors for treating diseases and disorders” (Board of Regents, The University of Texas System, priority 2017, dated 2023).
